Here are results for six molecules from paper PMC3542137, “Mycobacterium tuberculosis RecG binds and unwinds model DNA substrates with a preference for Holliday junctions”.

Data set [1] has as its target T1, RecGMtb (Mycobacterium tuberculosis H37Rv, UniProt P9WMQ7 1-737).
T1 sequence: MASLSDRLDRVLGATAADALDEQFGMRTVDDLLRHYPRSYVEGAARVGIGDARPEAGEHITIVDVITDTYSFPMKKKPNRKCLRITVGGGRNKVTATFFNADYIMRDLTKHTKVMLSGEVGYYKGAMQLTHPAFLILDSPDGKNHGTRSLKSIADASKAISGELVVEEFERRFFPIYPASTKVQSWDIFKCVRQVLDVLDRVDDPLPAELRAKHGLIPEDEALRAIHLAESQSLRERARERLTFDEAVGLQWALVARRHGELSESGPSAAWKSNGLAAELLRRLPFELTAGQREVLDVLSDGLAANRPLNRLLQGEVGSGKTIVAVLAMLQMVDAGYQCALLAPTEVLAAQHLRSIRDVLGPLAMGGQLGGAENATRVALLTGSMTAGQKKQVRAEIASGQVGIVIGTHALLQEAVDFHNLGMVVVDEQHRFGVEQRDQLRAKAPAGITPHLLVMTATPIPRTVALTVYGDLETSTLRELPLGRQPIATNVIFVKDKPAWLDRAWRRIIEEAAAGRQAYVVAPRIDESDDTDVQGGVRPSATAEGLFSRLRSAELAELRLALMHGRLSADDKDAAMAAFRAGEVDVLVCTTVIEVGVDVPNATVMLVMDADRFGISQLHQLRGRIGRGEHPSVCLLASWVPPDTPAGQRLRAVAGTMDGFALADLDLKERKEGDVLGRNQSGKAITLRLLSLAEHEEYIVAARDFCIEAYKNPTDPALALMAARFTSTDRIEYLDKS
The data set is described as follows: EMSA; 5 mM EDTA, poly(dI-dC). The settings on record: protein: recombinant, tags: N-terminal His6 cleaved off with thrombin (pET28b), label: 32P 5' end.

Data set [2] addresses T1, RecGMtb. The data set is described as follows: EMSA; no poly(dI-dC); 1 uM RecG. The settings on record: protein: recombinant; tags: N-terminal His6 cleaved off with thrombin (pET28b); label: 32P 5' end.
Data set [3] addresses T1, RecGMtb. Kind of data set: EMSA; 5 mM EDTA, poly(dI-dC); 2 uM RecG. The settings on record: protein: recombinant; tags: N-terminal His6 cleaved off with thrombin (pET28b); label: 32P 5' end; bubble 1:2. A general note: A gel shift assay detects complexes by their altered migration in electrophoresis.

B1: Holliday junction (substrate H) (structured_DNA)
DNA 1: GACGCTGCCGAATTCTGGCTTGCTAGGACATCTTTGCCCACGTTGACCC
DNA 2: TGGGTCAACGTGGGCAAAGATGTCCTAGCAATGTAATCGTCTATGACGTT
DNA 3: CAACGTCATAGACGATTACATTGCTAGGACATGCTGTCTAGAGACTATCGA
DNA 4: ATCGATAGTCTCTAGACAGCATGTCCTAGCAAGCCAGAATTCGGCAGCGT
In the case of B1, in the data set with RecGMtb [1], the binding result was “binds”.

B2: poly(dT) 40 nt (ssDNA)
DNA: TTTTTTTTTTTTTTTTTTTTTTTTTTTTTTTTTTTTTTTT
As to B2, in the data set with RecGMtb [2], the binding result is given as “binds”.

B3: 3'-tailed duplex (oligos 1+2) (dsDNA)
DNA 1: CGTGACATGCCGTGACTAGCTTTTTTTTTTTTTTTTTTTT
DNA 2: GCTAGTCACGGCATGTCACG
B3: the binding result with RecGMtb [1] (3' overhang 20 nt (T20)) is reported as “no binding”.

B4: lagging strand replication fork (substrate E) (structured_DNA)
DNA 1: GTCGGATCCTCTAGACAGCTCCATGATCACTGGCACTGGTAGAATTCGGC
DNA 2: CAACGTCATAGACGATTACATTGCTACATGGAGCTGTCTAGAGGATCCGA
DNA 3: TAGCAATGTAATCGTCTATGACGTT
On to B4, for which the binding result with RecGMtb [1] (fork 1:2 2:3) is listed as “binds”.

B5: bubble (substrate I) (structured_DNA)
DNA 1: GGGTGAACCTGCAGGTGGGCGGCTGCTCATCGTAGGTTAGTTGGTAGAATTCGGCAGCGTC
DNA 2: GACGCTGCCGAATTCTACCAGTGCCTTGCTAGGACATCTTTGCCCACCTGCAGGTTCACCC
In the case of B5, the binding result with RecGMtb [3] is given as “binds”.

B6: 5'-tailed duplex (oligos 3+2) (dsDNA)
DNA 1: TTTTTTTTTTTTTTTTTTTTCGTGACATGCCGTGACTAGC
DNA 2: GCTAGTCACGGCATGTCACG
Turning to B6, the binding result with RecGMtb [1] (5' overhang 20 nt (T20)) was “no binding”.
